From PMC3598077 (EMBO Molecular Medicine, 2013) come the findings set out here.

The target of this experiment is T1, Recombinant His-RAD51 fusion protein (UniProt Q06609 1-339).
T1 sequence: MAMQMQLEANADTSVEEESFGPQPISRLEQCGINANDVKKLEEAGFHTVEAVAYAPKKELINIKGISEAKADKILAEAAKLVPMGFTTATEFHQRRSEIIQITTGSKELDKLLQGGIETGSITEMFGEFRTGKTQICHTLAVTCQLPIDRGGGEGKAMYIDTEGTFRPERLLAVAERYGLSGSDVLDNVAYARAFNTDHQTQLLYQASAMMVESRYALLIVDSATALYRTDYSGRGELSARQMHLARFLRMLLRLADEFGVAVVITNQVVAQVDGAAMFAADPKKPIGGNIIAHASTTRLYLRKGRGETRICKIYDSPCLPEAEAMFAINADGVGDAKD
As to the kind of experiment: SPR. In general terms: In SPR one partner is held on a chip, and binding of the other changes the refractive index at the surface.

For FGGSFRTASNKEIKLSEHNIKKSKMFFKDIEEQYPT (domain or fragment) [Recombinant GST-BRC fusion protein (containing BRCA2-1005-1040, fused with GST at its N-terminal)], the binding result is reported as “binds”.
